Consider 1 substance from article PMC12130304.

As usually defined, the stoichiometry N is a count of units in the complex or per binding partner.

The assay deals with C-terminal, Twin-Strep-HA-tagged AVRA13-1 (Blumeria hordei). Nature of the assay: SEC + other: negative-stain TEM.

Turning to “N-terminal, GST-tagged MLA13^K98E/K100E (receptor)”, the stoichiometry N was 1.
